How the values were obtained:
Assay type in all cases: physicochemical
[1] = Atomic force microscopy of peptide preparations; conditions: 25 µM peptide adsorbed 10 min onto silicon wafers, tapping mode
Experimental: High-resolution analysis of the peptide solution preparations were carried out using atomic force microscopy (AFM).
AFM topography images were acquired in the light tapping mode regime using a Multimode AFM (Veeco, USA). Resonant frequencies of the uncoated silicon tips (MikroMasch, USA) were roughly 150 kHz, with scan rates around 5–8 µm/s. Peptide samples were prepared using the protocol described above and diluted to 25 µM before application. Peptide solutions were adsorbed by incubating onto Pirahna cleaned silicon wafers with molecular smoothness (∼1 Å RMS roughness) as determined by AFM. After incubating for 10 min, the wafers are gently washed repeatededly with MilliQ water.

[2] = One-dimensional 1H NMR of peptide preparations (soluble versus aggregated state); conditions: 10% DMSO/PBS
Experimental: All peptides were used as supplied. Solution samples of the peptides were prepared as follows. Peptides were dissolved in 1,1,1,3,3,3-hexafluoro-2-propanol (HFIP) to concentrations of 1 mM HFIP, evaporated over nitrogen, and then dried in a Savant Speed Vac for 1 hr. The resultant peptide films were further kept under vacuum for a few hours to remove solvent traces. The films were stored at −80°C until use. Peptide films were dissolved to ∼0.5 mM concentrations in 10% d6-DMSO/10 mM PBS buffer to a final pH of 7.2. The solutions were incubated at 4°C for 12 hours, and then transferred to 37°C for 4 hours. The resulting solutions were centrifuged at 13000 rpm in a desktop centrifuge (Eppendorf) at 4°C for 30 min to remove any precipitated gel-form of the peptides. After centrifugation, the peptide concentrations were adjusted to 0.4 mM (concentrations were checked by UV visible spectroscopy), 0.05% sodium azide added as a bacteriostat and transferred to 5 mm NMR tubes. […]
NMR spectra were acquired at the Stanford Magnetic Resonance Laboratory on a Bruker Avance 500 MHz spectrometer running TopSpin v1.3 and equipped with a 5 mm H{CN} Z-axis gradient CryoProbe. […] The data was processed in TopSpin and analyzed with SPARKY [38].

[3] = Circular dichroism spectroscopy (conformation / fibril development)
Experimental: Conformational analyses of the mutant and Aβ42WT peptides were also carried out by Circular Dichroism (CD) spectroscopy.
The fibrils from the Aβ42WT preparation were centrifuged at 12000 rpm for 15 min to separate from any remaining monomer and the pellet was re-suspended in 10 mM phosphate pH 7.2 for CD measurement. CD measurements were performed using a 0.1 mm path length quartz cell in an Aviv 62A DS Circular Dichroism spectrometer (Aviv Associates, Lakewood, NJ) at 22°C.
(§1) The thioflavin T (ThT) binding studies of Aβ42WT and mutant peptides were carried out by incubating precipitated fibrils of the Aβ42WT or eluted oligomer preparation from the SEC column. The 25 µM amyloid fibrils (Aβ42WT) or oligomers of mutant were mixed with 5 µM of ThT dye concentration. After 2 h incubation, the fluorescence of the sample solutions were recorded by exciting at 440 nm and the intensity at 480 nm is monitored using Perkin-Elmer LC 55B spectrofluorimeter. The bandwidths of excitation/emission wavelengths were 5 nm/each.

[4] = Thioflavin T fluorescence (aggregation / mature fibril formation); conditions: 25 µM fibrils (Aβ42WT) or SEC-eluted mutant oligomers, 5 µM ThT, 2 h incubation, excitation 440 nm, emission 480 nm, 25°C
Experimental: Thioflavin T fluorescence was used to assess aggregation and mature fibril formation as β-sheet content is directly correlated with fluorescence intensity of the dye.
as §1, with “Mean residue ellipticity (θ) was determined according to the equation θ = θObs • MRW/(10 • l • c); where θObs is observed ellipticity, MRW is mean residue weight of the peptide, c is peptide concentration (g/L), and l is optical path length (cm). The thioflavin” for “The thioflavin”

Aβ42WT: wild type form of Aβ42, recombinant purified, unlabeled and 15N-labeled, from rPeptide
mean globular structure height (AFM) [1]: 4.32 nm
species formed in preparation ([2]; 0.4 mM): formed fibrils
state in solution by 1D 1H NMR (amide/aromatic region) ([2]; pH 7.2, 25°C, samples prepared in the same manner): very little observable signal
conformation by CD spectrum ([3]; 0.1 mm path length cell, WT fibril pellet in 10 mM phosphate pH 7.2, mutant SEC-eluted): β-sheet rich, mature fibrils
period over which aggregate develops into β-sheet rich, mature fibrils (CD) ([3]; PBS buffer, absorbance at ∼220 nm): 12 h
Thioflavin T fluorescence of Aβ42WT compared to Aβ42Nle35p37 [4]: about four
